Measured values reported in PMC8750329.

Assays:
[1] = biological target: P. clarkii crustacyanin A2 (PcCRA2) (Procambarus clarkii); experiment: SEC + other: SDS-PAGE; fraction F2, 1 mg/mL, TSK-gel G3000SWxl, 20 mM sodium phosphate pH 7.0, 0.7 mL/min, calibrated with a protein standard mix; native mass about 43 kDa against a single 21 kDa band on SDS-PAGE
[2] = biological target: P. clarkii crustacyanin A2 (PcCRA2) (Procambarus clarkii); experiment: SEC + other: SDS-PAGE; fraction F1, 1 mg/mL, TSK-gel G3000SWxl, 20 mM sodium phosphate pH 7.0, 0.7 mL/min, calibrated with a protein standard mix; native mass about 170 kDa against a single 21 kDa band on SDS-PAGE

stoichiometry N [1]: 2
stoichiometry N [2]: 8
Substance: P. clarkii crustacyanin A2 (PcCRA2) (natural protein)
